Substrate in data set [1]: CC(C)C[C@H](NC(=O)[C@@H](NC(=O)[C@H](CCCNC(=N)N)NC(=O)[C@H](C)NC(=O)[C@@H](N)CCCNC(=N)N)[C@@H](C)O)C(=O)N[C@@H](CO)C(=O)N[C@@H](Cc1ccccc1)C(=O)N[C@@H](C)C(=O)N[C@@H](CCC(=O)O)C(=O)N1CCC[C@H]1C(=O)NCC(=O)O
The data set is described as follows: Kinetic parameters for peptide phosphorylation, radioactive filter-binding assay. It counts as biochemical, human. The conditions noted are these: other: MAPKAP-K3; Standard Substrate = …; 30.0 °C. The text has this: (§1) Apart from the AMP-activated protein kinase (AMPK, a gift from Drs S. Hawley and D. G. Hardie), cGMP-dependent protein kinase (PKG, a generous gift from Drs Susan Lohmann and Ulrich Walter, University of Wurzburg, Germany) and the catalytic subunit of cyclic AMP-dependent protein kinase (PKA, a gift from Dr C. Smythe), which were isolated from rat liver, bovine lung and bovine heart, respectively, all other protein kinases were expressed as either GST-fusion or His-tagged proteins (by a person, a person, Dr A. Paterson or a person, in this Division). The expressed proteins all corresponded to the human sequences apart from the rat Rho-dependent protein kinase (ROCK-II) and rat mitogen-activated protein kinase (MAPK) activated kinase-1a (MAPKAP-K1a, also called RSK). […]
(§2) All protein kinase assays were linear with respect to time. […] All papers were subsequently washed a further three times in phosphoric acid, once in acetone, then dried and counted for radioactivity. […] The plates were then washed six times (five min per wash) in PBS, 0.1% Tween 20 and binding of the phospho-specific antibody detected by incubating the plates with peroxidase-conjugated anti-sheep antibodies (Pierce). […] Signals were quantitated on LAS-1000IR software (FujiFilm). […]

Substrate in data set [2]: CC(C)C[C@H](NC(=O)[C@H](CCCNC(=N)N)NC(=O)[C@H](CCCNC(=N)N)NC(=O)[C@@H](N)CCCNC(=N)N)C(=O)N[C@@H](CO)C(=O)N[C@@H](Cc1ccccc1)C(=O)N[C@@H](C)C(=O)N[C@@H](CCC(=O)O)C(=O)N1CCC[C@H]1C(=O)NCC(=O)O
Described as above. The settings on record: other: PKG; Standard Substrate = …; 30.0 °C. It counts as biochemical, bovine.
Excerpt: as §1, §2

B1: MAPKAP-K3 (Homo sapiens) (protein)
chain: MDGETAEEQGGPVPPPVAPGGPGLGGAPGGRREPKKYAVTDDYQLSKQVLGLGVNGKVLECFHRRTGQKCALKLLYDSPKARQEVDHHWQASGGPHIVCILDVYENMHHGKRCLLIIMECMEGGELFSRIQERGDQAFTEREAAEIMRDIGTAIQFLHSHNIAHRDVKPENLLYTSKEKDAVLKLTDFGFAKETTQNALQTPCYTPYYVAPEVLGPEKYDKSCDMWSLGVIMYILLCGFPPFYSNTGQAISPGMKRRIRLGQYGFPNPEWSEVSEDAKQLIRLLLKTDPTERLTITQFMNHPWINQSMVVPQTPLHTARVLQEDKDHWDEVKEEMTSALATMRVDYDQVKIKDLKTSNNRLLNKRRKKQAGSSSASQGCNNQ
notes: GST; made in house; host or cells: E. coli
Broadly, the Km is the concentration of substrate that gives half-maximal velocity. For B1, in data set [1], the Km was 30 µM.

B2: PKG (Bos taurus) (protein)
chain: MSELEEDFAKILMLKEERIKELEKRLSEKEEEIQELKRKLHKCQSVLPVPSTHIGPRTTRAQGISAEPQTYRSFHDLRQAFRKFTKSERSKDLIKEAILDNDFMKNLELSQIQEIVDCMYPVEYGKDSCIIKEGDVGSLVYVMEDGKVEVTKEGVKLCTMGPGKVFGELAILYNCTRTATVKTLVNVKLWAIDRQCFQTIMMRTGLIKHTEYMEFLKSVPTFQSLPEEILSKLADVLEETHYENGEYIIRQGARGDTFFIISKGKVNVTREDSPNEDPVFLRTLGKGDWFGEKALQGEDVRTANVIAAEAVTCLVIDRDSFKHLIGGLDDVSNKAYEDAEAKAKYEAEAAFFANLKLSDFNIIDTLGVGGFGRVELVQLKSEESKTFAMKILKKRHIVDTRQQEHIRSEKQIMQGAHSDFIVRLYRTFKDSKYLYMLMEACLGGELWTILRDRGSFEDSTTRFYTACVVEAFAYLHSKGIIYRDLKPENLILDHRGYAKLVDFGFAKKIGFGKKTWTFCGTPEYVAPEIILNKGHDISADYWSLGILMYELLTGSPPFSGPDPMKTYNIILRGIDMIEFPKKIAKNAANLIKKLCRDNPSERLGNLKNGVKDIQKHKWFEGFNWEGLRKGTLTPPIIPSVASPTDTSNFDSFPEDNDEPPPDDNSGWDIDF
notes: which were isolated from rat liver, bovine lung and bovine heart, respectively; from tissue; host or cells: bovine lung
As for B2, in data set [2], the Km came to 50 µM.
